# B1: full-length HopM1: Pst DC3000 type III effector, 712-aa virulence protein (SEQ ID NO:34) (protein)
# chain: MISSRIGGAGGVELSRVNQQHDTVPAQTAHPNAVTAGMNPPLTPDQSGSHATESSSAGAARLNVAARHTQLLQAFKAEHGTAPVSGAPMISSRAALLIGSLLQAEPLPFEVMAEKLSPERYQLKQFQGSDLQQRLEKFAQPGQIPDKAEVGQLIKGFAQSVADQLEHFQLMHDASPATVGQHAKADKATLAVSQTALGEYAGRASKAIGEGLSNSIASLDEHISALDLTLQDAEQGNKESLHADRQALVDAKTTLVGLHADFVKSPEAKRLASVAAHTQLDNVVSDLVTARNTVGGWKGAGPIVAAAVPQFLSSMTHLGYVRLSTSDKLRDTIPETSSDANMLKASIIGMVAGIAHETVNSVVKPMFQAALQKTGLNERLNMVPMKAVDTNTVIPDPFELKSEHGELVKKTPEEVAQDKAFVKSERALLNQKKVQGSSTHPVGELMAYSAFGGSQAVRQMLNDVHQINGQTLSARALASGFGGAVSASSQTLLQLKSNYVDPQGRKIPVFTPDRAESDLKKDLLKGMDLREPSVRTTFYSKALSGIQSSALTSALPPVTAQAEGASGTLSAGAILRNMALAATGSVSYLSTLYTNQSVTAEAKALKAAGMGGATPMLDRTETALNNIRHPNRESLPHTFQKSTLSGIPRVAENAYHMGRGALQLPTQMAVDTVRVVDEGVLNAVASAREALKQPTKDDDALRALEEGLLDPR
# modifications: 6xHis tag; Pseudomonas syringae pv. tomato str. DC3000
# Test system: hrcC mutant
# Test: Bacterial multiplication in HopM1 transgenic Arabidopsis plants
# Assay type: in vivo, Pseudomonas syringae
# Details: full-length HopM1 expressed in transgenic Arabidopsis
# Protocol: Following inoculation, infected plants were monitored daily over a 3- to 4-day period for symptom development and bacterial multiplication. For experiments described in FIGS. 1 and 5, plants were sprayed with 30 μM dexamethasone (DEX) 24 h before bacterial inoculation (1×10^6 cfu/ml).
# Leaves were harvested and surface sterilized as follows: 1) whole leaves were removed from a host plant and gently mixed in a 70% ethanol solution for 1 minute. Leaves were blotted briefly on paper towels then rinsed in sterile distilled water for 1 minute, then blotted dry on paper towels. Leaf disks were excised from leaves with a 0.5 cm^2 or smaller cork borer, depending on the size of the sample leaves; 2) leaf disks from the leaves of 2 or more independent replicate plants were pooled for a single tissue sample and placed in a 1.5-mL microfuge tube with 100 μL sterile distilled water, the amount of leaf tissue per tube was recorded as leaf surface area. Three or more samples were harvested for each time point. […] The number of serial dilutions necessary to get countable colonies were determined for each sample, however dilutions to 10^−7 were usually sufficient for any bacterial strain; 7) The samples were plated on the appropriate medium (e.g., Low salt Luria Bertani) supplemented with the necessary antibiotics to select for the specific inoculated bacterial strain. […]
molecule,measurement,value
B1,complementation effect on multiplication,did not show this effect

# From patent US8058507B2, “HOPM1 mediated disease resistance to Pseudomonas syringae in Arabidopsis” (priority 2007, dated 2011)
